Legend:
[1] = biological target: human protease-activated receptor 2 (human) (UniProt P55085); experiment: cell-based or functional assay
[2] = biological target: T1, human protease-activated receptor 4 (human) (UniProt Q96RI0); experiment: cell-based or functional assay
T1 sequence (looked up): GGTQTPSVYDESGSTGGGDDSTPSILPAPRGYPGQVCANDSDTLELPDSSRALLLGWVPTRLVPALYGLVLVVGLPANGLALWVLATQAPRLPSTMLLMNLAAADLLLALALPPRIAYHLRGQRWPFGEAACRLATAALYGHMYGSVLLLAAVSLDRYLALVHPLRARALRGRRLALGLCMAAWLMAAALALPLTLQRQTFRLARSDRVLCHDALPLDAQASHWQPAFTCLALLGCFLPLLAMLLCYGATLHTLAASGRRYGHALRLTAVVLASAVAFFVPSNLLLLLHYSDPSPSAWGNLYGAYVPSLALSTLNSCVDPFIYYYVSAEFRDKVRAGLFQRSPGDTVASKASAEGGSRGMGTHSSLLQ

Chain of recombinant human cathepsin S (P25774 115-331): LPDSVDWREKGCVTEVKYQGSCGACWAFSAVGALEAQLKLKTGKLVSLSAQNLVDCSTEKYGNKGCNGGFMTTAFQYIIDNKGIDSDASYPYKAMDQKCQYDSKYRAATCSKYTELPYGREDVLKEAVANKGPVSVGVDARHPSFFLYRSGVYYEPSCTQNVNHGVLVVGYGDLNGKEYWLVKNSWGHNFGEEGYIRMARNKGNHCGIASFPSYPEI

## recombinant human cathepsin S (from UniProt P25774 115-331) (enzyme)
[1]
  calcium flux (ratiometric Fura-2 imaging, transfected HeLa cells): 30 nM
[2]
  calcium flux (ratiometric Fura-2 imaging, transfected HeLa cells): 30 nM

— patent publication US20110184016A1
